{"source": "paper PMC12846365", "key": {"[1]": {"target": "GTiii divalent immunogen, Fab-Fab-crosslinked version (HIV-1 strain BG505)", "experiment": "native gel or EMSA"}, "[2]": {"target": "GTi divalent immunogen, Fab-Fab-crosslinked version (HIV-1 strain BG505)", "experiment": "native gel or EMSA"}, "[3]": {"target": "GTii divalent immunogen, Fab-Fab-crosslinked version (HIV-1 strain BG505)", "experiment": "native gel or EMSA"}, "[4]": {"target": "3 plasmid ICs (as tested with N6)", "experiment": "native gel or EMSA"}, "[5]": {"target": "48d.cl IC, fusion version (gpCore + 48d heavy chain fusion, Fab-Fab-crosslinked K126C) (HIV-1 strain BG505)", "experiment": "native gel or EMSA"}, "wtA32": {"target": "wtA32", "sequence (heavy, as listed by the source, chain 1 of 2)": "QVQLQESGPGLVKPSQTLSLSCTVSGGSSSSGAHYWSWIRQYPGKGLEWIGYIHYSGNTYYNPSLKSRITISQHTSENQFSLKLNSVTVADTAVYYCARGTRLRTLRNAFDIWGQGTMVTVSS", "sequence (light, as listed by the source, chain 2 of 2)": "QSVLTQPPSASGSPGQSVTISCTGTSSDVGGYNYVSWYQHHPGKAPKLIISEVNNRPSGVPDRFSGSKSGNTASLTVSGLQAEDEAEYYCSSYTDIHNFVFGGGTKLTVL", "experiment": "not stated; KD of wtA32 in Table 1, no footnote and no method told"}, "7mutVRC01": {"target": "7mutVRC01", "sequence (heavy, as listed by the source, chain 1 of 2)": "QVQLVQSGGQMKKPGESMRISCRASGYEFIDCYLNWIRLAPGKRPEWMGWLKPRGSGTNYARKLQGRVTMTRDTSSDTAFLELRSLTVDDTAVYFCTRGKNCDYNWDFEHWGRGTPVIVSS", "sequence (light, as listed by the source, chain 2 of 2)": "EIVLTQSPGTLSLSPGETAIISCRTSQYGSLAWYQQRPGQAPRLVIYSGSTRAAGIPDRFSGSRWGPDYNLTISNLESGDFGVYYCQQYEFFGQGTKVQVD", "experiment": "SPR; OpenSPR-XT; C-terminally Strep-tagged antibody immobilised on Strep-Tactin XT over biotin sensor/streptavidin/biotinylated Strep-Tag peptide; analyte monovalent gpCore or ICs; 1:1 fit model; apparent kinetic values"}, "3mutA32": {"target": "3mutA32", "sequence (heavy, as listed by the source, chain 1 of 2)": "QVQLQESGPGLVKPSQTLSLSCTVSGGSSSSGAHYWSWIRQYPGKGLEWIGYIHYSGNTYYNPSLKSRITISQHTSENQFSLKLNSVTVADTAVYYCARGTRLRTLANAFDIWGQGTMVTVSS", "sequence (light, as listed by the source, chain 2 of 2)": "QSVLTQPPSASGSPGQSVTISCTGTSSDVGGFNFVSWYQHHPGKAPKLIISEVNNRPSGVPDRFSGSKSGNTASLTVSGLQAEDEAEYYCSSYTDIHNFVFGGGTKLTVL", "experiment": "SPR; OpenSPR-XT; C-terminally Strep-tagged antibody immobilised on Strep-Tactin XT over biotin sensor/streptavidin/biotinylated Strep-Tag peptide; analyte monovalent gpCore or ICs; 1:1 fit model; apparent kinetic values"}, "2mutVRC01": {"target": "2mutVRC01", "sequence (light, as listed by the source, chain 2 of 2, other chains not shown)": "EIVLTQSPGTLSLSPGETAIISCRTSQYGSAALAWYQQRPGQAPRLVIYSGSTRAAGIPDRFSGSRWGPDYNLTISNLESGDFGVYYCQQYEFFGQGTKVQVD", "experiment": "SPR; OpenSPR-XT; C-terminally Strep-tagged antibody immobilised on Strep-Tactin XT over biotin sensor/streptavidin/biotinylated Strep-Tag peptide; analyte monovalent gpCore or ICs; 1:1 fit model; apparent kinetic values"}}}
{"substance": "monomeric VRC01 IgM unmutated common ancestor (UCA) (antibody)", "values": [{"measurement": "Kd", "setting": "[1]", "result": 25, "unit": "nM"}, {"measurement": "Kd", "setting": "[2]", "result": "800 to 1000", "unit": "nM"}, {"measurement": "Kd", "setting": "[3]", "result": 60, "unit": "nM"}]}
{"substance": "N6 (antibody)", "values": [{"measurement": "stoichiometry N", "setting": "[4]", "result": 1}, {"measurement": "stoichiometry N", "setting": "[5]", "result": 1}]}
{"substance": "gpCore (core gp120 of strain BG505), monovalent (domain or fragment)", "values": [{"measurement": "Kd", "setting": "wtA32", "result": 0.4, "unit": "nM"}, {"measurement": "Kd", "setting": "7mutVRC01", "result": 7000, "unit": "nM"}, {"measurement": "Kd", "setting": "3mutA32", "result": 200, "unit": "nM"}, {"measurement": "Kd", "setting": "2mutVRC01", "result": 200, "unit": "nM"}]}
